In this data set the test system is carboxylation of FIXgla-PC reporter protein in HEK293 cells (reduction of KO to vitamin K). As to the kind of experiment: Cell-based VKOR activity assay: recombinant VKOR/VKORH expressed in FIXgla-PC/HEK293 cells with KO and warfarin, carboxylated reporter by ELISA. On the set-up: species or system human. As to conditions: for ability to promote carboxylation of the reporter protein compared to recombinant human VKOR: FIXgla-PC HEK293 (FIGS. 9, 10); for carboxylation of reporter protein by human VKOR cysteine mutants: Y139F background, HEK293 (FIG. 13); for amount of carboxylated reporter protein with mutated recombinant human VKOR: FIG. 12, compared to human VKOR Y139F; for activity in the in vivo assay: cysteine mutants of VKOR-Y139F, 4 μM warfarin (FIGS. 17A-B); for Relative activity: Human Y139F: VKOR of the organism compared to human Y139F VKOR, cell-based carboxylation; for sensitivity to warfarin: warfarin level used in these assays; for ability of human VKOR with replaced residues 122-139 to use KO to carboxylate the reporter: 48 h, HEK293 (FIG. 11C). A general note: In an ELISA, binding on a coated surface is turned into a signal by an enzyme label.

The values that follow come from US9631002B2, “Methods and compositions for producing active vitamin K-dependent proteins” (The University of North Carolina at Chapel Hill, priority 2010, dated 2017).

Positions count from the first letter of the chain named. Numbers in names are those of the source. Unless stated, no cut-off for active and inactive is given here. Entries after “also recorded” stand apart in the source; their conditions may differ.

For “VKOR: human vitamin K epoxide reductase, AAS01052, SEQ ID NO:5”, the “activity in cell-based in vivo activity assays” value was “active in the vitamin K cycle”.

B1: VKORC1L1: the VKOR paralogue, four TMDs (protein, UniProt Q8N0U8 1-176, looked up)
Vitamin K epoxide reductase …: MAAPVLLRVSVPRWERVARYAVCAAGILLSIYAYHVEREKERDPEHRALCDLGPWVKCSAALASRWGRGFGLLGSIFGKDGVLNQPNSVFGLIFYILQLLLGMTASAVAALILMTSSIMSVVGSLYLAYILYFVLKEFCIICIVTYVLNFLLLIINYKRLVYLNEAWKRQLQPKQD
For the molecule B1, the “activity in cell-based in vivo activity assays” value was “active in the vitamin K cycle”.

B2: C51A/Y139F: human VKOR with C51A and Y139F mutations (protein)
chain: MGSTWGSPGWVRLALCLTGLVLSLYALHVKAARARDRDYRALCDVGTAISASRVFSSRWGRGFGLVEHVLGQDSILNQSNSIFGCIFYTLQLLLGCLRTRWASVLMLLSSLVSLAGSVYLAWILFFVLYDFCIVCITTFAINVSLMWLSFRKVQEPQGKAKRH
modifications: Human VKOR with C51A mutation
notes: human VKOR with C51A and Y139F mutations
For the molecule B2, where the note is “5 μM KO, 2 μM warfarin”, the “ability to promote carboxylation of the reporter protein compared to recombinant human VKOR” value (“ability … compared to recombinant human VKOR” below) is “greater activity”. Moreover, the “carboxylation of reporter protein by human VKOR cysteine mutants” value (from here on “carboxylation of reporter protein”) (4 μM warfarin) is “greater activity than VKORY139F”. The “activity relative to human VKOR (Y139F)” value (both human forms carry Y139F, 5 μM KO, 2 μM warfarin) was “about 2 fold”.

B3: Y139W_IV133PY: human VKOR with residue 139 changed to W and IV at 133-134 changed to PY (protein, UniProt Q9BQB6 1-163, looked up, variant Y139W I133P V134Y)
Vitamin K epoxide reductase …: B2 chain with A51C, I133P, V134Y, F139W
With B3, the “amount of carboxylated reporter protein with mutated recombinant human VKOR” value was “does not restore activity”.

B4: 5C-Mut: VKOR-Y139F with C16A, C43A, C51A, C85A and C96A simultaneously (protein, UniProt Q9BQB6 1-163, looked up, variant Y139F C16A C43A C51A C85A C96A)
Vitamin K epoxide reductase …: B2 chain with C16A, C43A, C85A, C96A
Consider B4, for which, for the setting “4 μM warfarin”, the “carboxylation of reporter protein” value was “indistinguishable from VKORY139F”. In addition, the “activity in the in vivo assay” value (5 μM KO) is listed as approximately 40%.

B5: C43/51A: VKOR-Y139F with double mutation C43A and C51A (protein, UniProt Q9BQB6 1-163, looked up, variant Y139F C43A C51A)
Vitamin K epoxide reductase …: B2 chain with C43A
With B5, the “carboxylation of reporter protein” value (4 μM warfarin) is recorded as “restores normal (VKORY139F) activity”. Further, the “activity in the in vivo assay” value (5 μM KO) is listed as approximately 60%.

B6: Y139W: human VKOR with tyrosine 139 mutated to tryptophan (protein, UniProt Q9BQB6 1-163, looked up, variant Y139W)
Vitamin K epoxide reductase …: B2 chain with A51C, F139W
For B6, the “amount of carboxylated reporter protein with mutated recombinant human VKOR” value is “further reduction”.

B7: Hamster: Syrian golden hamster (AV12) VKOR, SEQ ID NO:3, Y139F warfarin resistant (protein, listed as Cricetulus griseus)
chain: MGTTWRSPGRWRLALCLAGLALSLYALHVKAARARDEDYRALCDVGSAISCSRVFSSRWGKGLGLVEHVLGPDSVLNQNSIFGCIFYTIQLLLGCLRGRWAFLLLVLSSLVSFAGSVYLAWILFFVLYDFCIVCITTYVINVGLMLLNFQDVPEHKAKRH
On to B7, for which the “Relative activity: Human Y139F” value is on record as “Yes, greater”. The “ability … compared to recombinant human VKOR” value (5 μM KO, 2 μM warfarin) is reported as “undiminished ability”.

B8: Platypus: duck-billed platypus VKOR, SEQ ID NO:16, lacks cysteines corresponding to 43 and 51 (protein, listed as Ornithorhynchus anatinus)
chain: MGAWVPTRSARVVGPRALGSRVATAVQPSAVDPDTRHDRIPSLRWGRGFGLVEMVLGPDSSLNQPNSVFGLLFYSLQLLLGCSRAPWTSVVLALSSLLSLAGSLYLAWILFFVLHDFCFVCITTYAINVGLALLNYRRLKQAQGKVMKYCDESSPASSLLERRFYSGGGLRNGGSAASFPFPPATGH
With B8, the “Relative activity: Human Y139F” value was “No”. Moreover, the “ability … compared to recombinant human VKOR” value (5 μM KO, 2 μM warfarin) was “inactive”.

B9: Acropora: Acropora VKOR (translation of EZ012735, SEQ ID NO:9), Y136F warfarin resistant (protein, listed as Acropora millepora)
chain: MVSFLGISRLLVCLAGIALSIYALHVELSKAHDKDYKALCDINEHMSCSKVFTSKYGTGFGLVEPLLGKNHPFNVPNSIFGIIFYSLIIILGVVSGKFAALMMFLFSLASCVGSVYLGYILFYILHDTCVVCISTYVVNACLFVINMITLNDALSAPSPKKKKN
Turning to B9, the “Relative activity: Human Y139F” value is “Yes, greater”. Besides, the “ability … compared to recombinant human VKOR” value (5 μM KO, 2 μM warfarin) is reported as “also promotes carboxylation of the reporter protein”.

B10: Nematostella: VKOR from Nematostella rendered warfarin resistant by Y135F mutation, SEQ ID NO:10 (protein, listed as Nematostella vectensis)
chain: MDKLGGFRMMLCVAGVFLSAYALNVEVSKSNNKDYRAICDISEKISCSKVFSSKYGTGFGLVEPIFGKDSTLNVPNSIFGIMFYTMVFLLGFSRSKLAAQLSVFSAVLSCLGSVYLGCILYFVLQDVCIICISTYVVNACLLVVNSLSLVNLQERTKRKQK
Regarding B10, the “Relative activity: Human Y139F” value was “Yes, greater”. The “ability … compared to recombinant human VKOR” value (5 μM KO, 2 μM warfarin) was “consistently better; also recorded: considerably more active”. The “ability … compared to recombinant human VKOR” value (5 μM KO, 2 μM warfarin, listed as Nematostella Y135F) is on record as “greater ability to stimulate carboxylation”.

B11: C43-51-DEL: VKOR-Y139F with deletion of C43, C51 and the residues between them (protein, UniProt Q9BQB6 1-163, looked up, variant Y139F del43-51)
Vitamin K epoxide reductase …: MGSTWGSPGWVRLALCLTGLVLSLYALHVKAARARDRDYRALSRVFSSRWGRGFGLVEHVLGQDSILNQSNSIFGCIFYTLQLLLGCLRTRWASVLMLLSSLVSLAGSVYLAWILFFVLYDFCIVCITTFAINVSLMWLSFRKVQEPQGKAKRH
For the molecule B11, the “activity in the in vivo assay” value (5 μM KO) is reported as approximately 60%.

B12: MT-VKORH: Mycobacterium tuberculosis VKOR homologue, NP_217484, SEQ ID NO:18 (protein, listed as Mycobacterium tuberculosis)
chain: MVAARPAERSGDPAAVRVPVPSAWWVLIGGVIGLFASMTLTVEKVRILLDPIYVPSCNVNPIVSCGSVMTTPQASLLGFPNPLLGIAGFTVVVVTGVLAVAKVPLPRWYWIGLAVGILVGVAFVHWLIFQSLYRIGALCPYCMVVWAVIATLLVVVASIVFGPMRENRGSQERVGARLLYQWRWSLATLWFTTVFLLIMVRFWDYSTLI
On to B12, for which the sensitivity to warfarin result is on record as “naturally resistant to warfarin”. In addition, the “ability … compared to recombinant human VKOR” value (5 μM KO, 2 μM warfarin) was “greater activity”. Besides, the “support of carboxylation of the reporter protein with KO as substrate” value (5 μM KO, 4 μM warfarin, 48 h (FIG. 15B)) was “supported carboxylation of the reporter protein”. The sensitivity to warfarin result (listed as VKOR from Mycobacterium tuberculosis) is “resistant to warfarin at the doses employed”.

B13: hVKOR Roseiflexus: human VKOR with residues 122-139 replaced by Roseiflexus VKOR 300-317, SEQ ID NO:33 (protein)
chain: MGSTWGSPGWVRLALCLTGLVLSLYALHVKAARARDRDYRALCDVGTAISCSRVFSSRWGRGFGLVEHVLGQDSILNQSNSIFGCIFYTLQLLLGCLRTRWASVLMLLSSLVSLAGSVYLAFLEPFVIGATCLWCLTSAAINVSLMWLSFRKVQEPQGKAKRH
modifications: Human VKOR with amino acids 122-139 substituted with amino acids 300-317 of Roseiflexus sp. RS-1 VKOR (RefSeq accession no. YP_001274867)
For B13, the “ability of human VKOR with replaced residues 122-139 to use KO to carboxylate the reporter” value (5 μM KO, 2 μM warfarin) is reported as “only the human VKOR substituted with the M. tuberculosis domain functions as a VKOR”.

B14: hVKOR Synechococcus: human VKOR with residues 122-139 replaced by Synechococcus VKOR 120-137, SEQ ID NO:31 (protein)
chain: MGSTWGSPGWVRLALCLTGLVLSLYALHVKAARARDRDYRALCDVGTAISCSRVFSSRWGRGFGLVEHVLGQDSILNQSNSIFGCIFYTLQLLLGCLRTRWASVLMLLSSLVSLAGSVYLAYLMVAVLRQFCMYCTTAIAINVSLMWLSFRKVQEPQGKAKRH
modifications: Human VKOR with amino acids 122-139 substituted with amino acids 120-137 of Synechococcus sp. JA-2-3B′a(2-13) VKOR (RefSeq accession no. YP_478481)
Regarding B14, under “5 μM KO, 2 μM warfarin”, the “ability of human VKOR with replaced residues 122-139 to use KO to carboxylate the reporter” value is on record as “only the human VKOR substituted with the M. tuberculosis domain functions as a VKOR”.
